Assay results: paper PMC3792123, “Role of Cysteines in the Stability and DNA-Binding Activity of the Hypochlorite-Specific Transcription Factor HypT” (PLoS ONE, 2013)
Residue numbers refer to the chain shown, from its start. In names and notes the source's numbering stands.

B1: HypT (wild-type, purified) (natural protein, E. coli, UniProt P39376 1-303, looked up)
chain: MDDCGAILHNIETKWLYDFLTLEKCRNFSQAAVSRNVSQPAFSRRIRALEQAIGVELFNRQVTPLQLSEQGKIFHSQIRHLLQQLESNLAELRGGSDYAQRKIKIAAAHSLSLGLLPSIISQMPPLFTWAIEAIDVDEAVDKLREGQSDCIFSFHDEDLLEAPFDHIRLFESQLFPVCASDEHGEALFNLAQPHFPLLNYSRNSYMGRLINRTLTRHSELSFSTFFVSSMSELLKQVALDGCGIAWLPEYAIQQEIRSGKLVVLNRDELVIPIQAYAYRMNTRMNPVAERFWRELRELEIVLS
notes: HypT (YjiE), HOCl-specific LysR-type transcription factor of E. coli; Oxidation (HOCl, NH2Cl, H2O2) gives a Cys4-Cys4 disulfide between two chains; also called YjiE; wild-type HypT; source: E. coli BL21 (DE3) gold, pET11a, purified (HisTrap, PD10 desalting); copies: 12
B2: HypT^quadrupleC150 (natural protein, E. coli, UniProt P39376 1-303, looked up)
chain: B1 chain with C4S, C25S, C178S, C242S
notes: HypT (YjiE) of E. coli, quadruple mutant: four cysteines replaced by serine, Cys150 left intact; source: E. coli BL21 (DE3) gold, pET28a, purified (HisTrap, PD10 desalting)
B3: HypT^5C→S (natural protein, E. coli, UniProt P39376 1-303, looked up)
chain: B1 chain with C4S, C25S, C150S, C178S, C242S
notes: also called cysteine-free HypT mutant; source: E. coli BL21 (DE3) gold, pET28a, purified (HisTrap, PD10 desalting)
B4: HypT^C25S (natural protein, E. coli, UniProt P39376 1-303, looked up)
chain: B1 chain with C25S
notes: HypT (YjiE) of E. coli, single mutant C25S; source: E. coli BL21 (DE3) gold, pET28a, purified (HisTrap, PD10 desalting)
B5: HypT^C150S (natural protein, E. coli, UniProt P39376 1-303, looked up)
chain: B1 chain with C150S
notes: HypT (YjiE) of E. coli, single mutant C150S; source: E. coli BL21 (DE3) gold, pET11a, purified (HisTrap, PD10 desalting)
B6: HypT^C178S (natural protein, E. coli, UniProt P39376 1-303, looked up)
chain: B1 chain with C178S
notes: HypT (YjiE) of E. coli, single mutant C178S; source: E. coli BL21 (DE3) gold, pET11a, purified (HisTrap, PD10 desalting)
B7: HypT^C242S (natural protein, E. coli, UniProt P39376 1-303, looked up)
chain: B1 chain with C242S
notes: HypT (YjiE) of E. coli, single mutant C242S; source: E. coli BL21 (DE3) gold, pET11a, purified (HisTrap, PD10 desalting)

Tests used:
[1] = target: the molecule itself; assay: AUC; sedimentation velocity, 4 to 10 µM protein, absorbance at 280 nm, 10 mM NaH2PO4, 400 mM NaCl, 5% glycerin, pH 7.5; c(S) method (SedFit)
[2] = target: the molecule itself; assay: cross-linking; disulfide formed on oxidation: purified, reduced protein treated with HOCl (25 µM), NH2Cl (25 µM) or H2O2 (1 mM), then non-reducing SDS-PAGE; disulfide-linked dimer at ca. 64 kDa, mostly reduced again by 1 mM TCEP

Row | Protein | binding result [2] | other results
1 | B1 |  | stoichiometry N [1]: 12
2 | B2 |  | binding result [1]: binds
3 | B3 |  | stoichiometry N [1]: 4
4 | B4 | binds | 
5 | B5 | binds | 
6 | B6 | binds | 
7 | B7 | binds | 
